For one molecule, stoichiometry N results are on record in article doi:10.1101/2021.09.12.459968.

For experiment [1], the target named is T1, full-length mouse NLRP3 (FLAG-mScarlet tag removed), double ring cage (mouse), Q8R4B8.
T1 chain: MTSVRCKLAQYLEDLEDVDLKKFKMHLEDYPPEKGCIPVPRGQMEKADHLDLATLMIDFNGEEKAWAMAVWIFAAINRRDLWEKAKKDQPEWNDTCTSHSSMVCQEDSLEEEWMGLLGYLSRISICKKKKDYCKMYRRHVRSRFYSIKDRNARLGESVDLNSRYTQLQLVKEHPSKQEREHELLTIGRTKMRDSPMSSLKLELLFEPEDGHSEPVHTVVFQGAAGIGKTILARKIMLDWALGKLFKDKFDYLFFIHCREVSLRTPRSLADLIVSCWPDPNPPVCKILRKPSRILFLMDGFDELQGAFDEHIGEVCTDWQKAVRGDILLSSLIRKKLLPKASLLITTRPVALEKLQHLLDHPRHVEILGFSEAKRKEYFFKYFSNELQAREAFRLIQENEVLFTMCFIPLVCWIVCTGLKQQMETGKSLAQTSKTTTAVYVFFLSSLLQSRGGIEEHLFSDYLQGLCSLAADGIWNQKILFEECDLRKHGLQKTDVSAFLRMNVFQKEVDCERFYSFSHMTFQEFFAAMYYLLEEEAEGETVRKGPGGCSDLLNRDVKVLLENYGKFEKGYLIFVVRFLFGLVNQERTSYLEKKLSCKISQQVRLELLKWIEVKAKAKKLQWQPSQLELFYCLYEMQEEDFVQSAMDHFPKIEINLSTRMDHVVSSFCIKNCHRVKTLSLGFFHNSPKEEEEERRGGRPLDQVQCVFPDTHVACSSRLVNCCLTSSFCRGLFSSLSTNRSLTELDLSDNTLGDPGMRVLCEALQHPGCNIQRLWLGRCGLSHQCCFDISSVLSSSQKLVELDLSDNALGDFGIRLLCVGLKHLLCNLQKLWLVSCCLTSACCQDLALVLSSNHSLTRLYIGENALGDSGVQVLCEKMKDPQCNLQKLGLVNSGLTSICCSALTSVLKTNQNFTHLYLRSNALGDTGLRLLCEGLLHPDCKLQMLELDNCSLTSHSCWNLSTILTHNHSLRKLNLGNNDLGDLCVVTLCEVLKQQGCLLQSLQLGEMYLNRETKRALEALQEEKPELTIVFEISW
Nature of the experiment: cryo-EM structure. The note with it: remark: other sources report otherwise.

Experiment [2] addresses T1, full-length mouse NLRP3 (FLAG-mScarlet …). Kind of experiment: cryo-EM structure. The note with it: remark: other sources report otherwise.

“And” between values parts separate entries of the source, which are not always exact repeats. Equal entries are not always repeated.

B1: full-length mouse NLRP3 (FLAG-mScarlet tag removed), double ring cage, Q8R4B8 1-1033 (natural protein)
chain: T1 chain
The term stoichiometry N denotes the number of molecules, sites or subunits per partner or assembly. For B1, the stoichiometry N in experiment [1] was 12 and 14 and 16; in experiment [2] it was 12.
